The record followed here is patent US20030104981A1, “Human insulin analogues” (priority 1995, published 2003).

Assay [1] addresses insulin-degrading enzyme (IDE). Kind of assay: cell-based or functional assay.
The target in assay [2] is insulin receptor in the LB lymphoma cell. Kind of assay: competition with native insulin for insulin receptors on LB lymphoma cells.
insulin receptor in the LB lymphoma cell, sequence (P15208 28-748, chain 1 of 2): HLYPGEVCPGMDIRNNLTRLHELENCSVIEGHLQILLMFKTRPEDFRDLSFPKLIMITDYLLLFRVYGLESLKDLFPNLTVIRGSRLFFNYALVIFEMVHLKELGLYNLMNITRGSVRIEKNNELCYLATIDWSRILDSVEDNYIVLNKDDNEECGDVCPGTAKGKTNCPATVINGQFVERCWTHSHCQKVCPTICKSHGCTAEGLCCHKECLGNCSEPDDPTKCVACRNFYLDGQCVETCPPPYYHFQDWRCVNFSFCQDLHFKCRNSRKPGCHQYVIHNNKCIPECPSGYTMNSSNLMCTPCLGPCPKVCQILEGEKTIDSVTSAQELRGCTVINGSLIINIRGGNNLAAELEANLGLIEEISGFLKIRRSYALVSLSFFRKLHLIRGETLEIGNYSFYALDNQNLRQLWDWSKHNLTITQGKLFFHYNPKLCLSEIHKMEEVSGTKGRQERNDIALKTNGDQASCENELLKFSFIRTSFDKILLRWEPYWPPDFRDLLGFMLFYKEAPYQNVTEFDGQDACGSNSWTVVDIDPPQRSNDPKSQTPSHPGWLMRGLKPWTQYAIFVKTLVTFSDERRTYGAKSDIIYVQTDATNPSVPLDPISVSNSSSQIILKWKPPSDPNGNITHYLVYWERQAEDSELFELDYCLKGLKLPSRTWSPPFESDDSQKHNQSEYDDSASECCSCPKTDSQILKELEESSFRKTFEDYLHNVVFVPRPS
insulin receptor in the LB lymphoma cell, sequence (P15208 753-1372, chain 2 of 2): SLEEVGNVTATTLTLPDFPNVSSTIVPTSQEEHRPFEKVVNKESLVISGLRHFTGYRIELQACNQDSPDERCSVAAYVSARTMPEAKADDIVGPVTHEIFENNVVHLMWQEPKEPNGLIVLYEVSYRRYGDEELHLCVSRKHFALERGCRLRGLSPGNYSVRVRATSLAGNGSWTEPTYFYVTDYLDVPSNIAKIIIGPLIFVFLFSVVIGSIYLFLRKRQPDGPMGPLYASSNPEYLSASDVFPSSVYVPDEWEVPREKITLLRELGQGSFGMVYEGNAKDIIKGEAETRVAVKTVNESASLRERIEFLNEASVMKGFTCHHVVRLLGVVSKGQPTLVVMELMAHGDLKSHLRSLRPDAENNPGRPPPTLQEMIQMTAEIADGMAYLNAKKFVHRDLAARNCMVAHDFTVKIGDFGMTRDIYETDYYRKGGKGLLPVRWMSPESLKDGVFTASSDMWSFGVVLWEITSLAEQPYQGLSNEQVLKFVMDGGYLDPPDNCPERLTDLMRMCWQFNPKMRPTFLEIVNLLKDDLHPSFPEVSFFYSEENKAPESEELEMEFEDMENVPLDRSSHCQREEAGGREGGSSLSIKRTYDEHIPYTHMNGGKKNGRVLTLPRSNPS

As for “^125I A14 mono-iodo porcine insulin (from UniProt P01315 25-54) (ligand)”, in assay [1], the TCA assay analysis of degradation, 10 minutes incubation came out at 25.9%; the TCA assay analysis of degradation, 20 minutes incubation amounted to 66.8%; the TCA solubility after 15 minutes of incubation, IDE dilution 1:30 was 22.5%.
Turning to “des-(B26-B30)-[Glu-B10; Ser-B17; Tyr-B25-NH2] Radoyka I human insulin analogue (ligand)”, in assay [2], the binding affinity as percent of native insulin turned out to be 20% and the times less binding affinity than native insulin worked out at 5 times.
In assay [2], “des-(B26-B30)-[Glu-B10; Thr-B14; Ser-B17; Tyr-B25-NH2] Radoyka II human insulin analogue (ligand)” displayed a binding affinity as percent of native insulin of 10% and a times less binding affinity than native insulin of 10 times. Further, in assay [1], the stability from insulin-degrading enzyme against ^125I A14 porcine insulin (TCA precipitation or HPLC assay) was found to be 4.5 times.
